The test has as its target recombinant human TNFα (RDI) (human) (UniProt P01375). The test can be described thus: cell-based or functional assay.

Sequence of recombinant human TNFα (RDI) (human) (P01375 77-233 limits assumed): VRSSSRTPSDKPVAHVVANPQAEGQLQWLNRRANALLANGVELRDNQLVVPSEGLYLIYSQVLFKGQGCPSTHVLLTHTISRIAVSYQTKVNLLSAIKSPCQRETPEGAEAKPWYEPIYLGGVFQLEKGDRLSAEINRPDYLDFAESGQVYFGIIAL

B1: MMP7 (enzyme, UniProt P09237 95-267, looked up, species assumed)
Matrilysin: YSLFPNSPKWTSKVVTYRIVSYTRDLPHITVDRLVSKALNMWGKEIPLHFRKVVWGTADIMIGFARGAHGDSYPFDGPGNTLAHAFAPGTGLGGDAHFDEDERWTDGSSLGINFLYAATHELGHSLGMGHSSDPNAVMYPTYGNGDPQNFKLSQDDIKGIQKLYGKRSNSRKK
Consider B1, for which the L929 cell survival at the dilution equivalent to ~600 pg/ml TNFα (reference standard: 10% survival) was 40 % survival and the log reduction in TNFα activity at the 50% survival level, L929 cytotoxicity bioassay after overnight digestion was 1.22 log.
